Measured values published in the nanobody polyreactivity screen of Harvey et al. (2022).

Test: yeast display, Sf9 membrane polyspecificity reagent, FACS + sequencing; frameworks hold sequencing errors
Procedure, shortened: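 A nanobody's polyreactivity label depends on the gate it was sorted from. Yeast display cells were stained with 10% biotinylated, detergent-solubilized Sf9 membrane reagent for 1 hour at 4 °C, enriched on streptavidin microbeads and sorted by FACS. The low and high (top ~1%) gates were set on anti-HA fluorescence for expression and streptavidin fluorescence for reagent binding.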

Row | Sequence | polyreactivity (PSR sort gate)
1 | QVQLQETGGGLVQAGGSLRQSCAASRSISPWSYMGRYRQAPGKEREFVASINAGTNTYYADSAKGRITISRDNAKNTVYLQMNSLKPEDTAAYYCAARYWNDYYFPYWGQGTEVTVSS | low polyreactivity
2 | QVQLVESGGGIVQAGGSLRLSCAASGIIFGYYAMGWYRQAPGKERELVAAISRRGGSTYYADSVKGRFTISRDNATITVYLQMHSLKPEDSAVSYCAAVELRLSTPDMESWVQGTQVTVSS | high polyreactivity
3 | QVQLVESGGGLVQAGGSLRLSCAASGSISVNAMVWDRQAPGKERELVAVINRSGGNTYYADSVKGRFTISRDNAKNTVYLQMNSLKPEDTAVYYCAAKWTRSYSRYDYWGQVTQVTVSS | high polyreactivity
4 | QVQLVESGGGLVQAGGSLRLSCAASGSTFNIYTMGWYRQAPGKERELVARITFSGGSTYYADSVKGRFTISRDNAKNTVYLQMNSLKPEDTAVYYCAVRVYRVDHFGYDYWGQGTQVTVSS | high polyreactivity
5 | QVQLVESGGGLVQAGGSLRLSCAASGFTFEWNTMGWYRPAPGKERELVARINWSSGRTYYADSVKGRFTISRDNAKNTVYLQMNSLKPEDTAVYYCAADTYDWRTGYKDDYWGQGTQVTVSS | high polyreactivity
6 | QVQLVESGGGLVQAGGSLRLSCAASGIIFYYYAMGWYRQAPGKERELVAAISWSGGSTYYADSVKGRFTISRDNAKNTVYLQMNSLKPEDTAVYYCAASSTSGYDWGQGTQVTVSS | low polyreactivity
7 | QVQLVESGGGLVQAGGSLLLSCAASGFIFVSYAMGWYRQAPGKERELVAAIDRIGGITYYADSVKGRFTISRDNAKNTVYLQMNSLKREDTAVYYCAAAARFATVRVGREYYWGQGTQVTVSS | low polyreactivity
8 | QVQLVESGGGLVQAGGSLRLSCAASGFIFPWYAMGWYRQAPGKERELVAAISSSGGRTYYADSVKGRFTISRDNAKNTVYLQMNSLKPEDTAVYYCNVANGLSQVYRYNYWGQGTQVTVSS | high polyreactivity
9 | QVQLLESGGGLVQAGGSLRLSCAASGIIFVRYVMGWYRQAPVKERELVAAINWSGGSTYYADSVKGRFTISRDNAKNTVYLQMNSLKPEDTAVYYCAAGSARDDDYWGQGTQVTVSS | high polyreactivity
10 | QVQLVESGGGLVQAGGSLRLSCAASGRIFTNYVMGWYRQAPGKERELVAAISKSGSRTYYADSVKGRFTISRDNAKNTVYLQMNSLKPEDTAVYYCAKVDTPGSQRYITPDEGPEYEYWGQGTQVTVSS | high polyreactivity
11 | QVQLVESGGGLVQAGGSLRLSCAASGRIFCGYMGWYRQAPGKEREFVAAISVRGGGTYYADSVKGRFTISRDNAKNTVYLQMNSLKPEDTAVDYCNTRGGWPYDYWGQGTQVTVSS | low polyreactivity
12 | QVQLVESGGGLVQAGGSLRLSSAASGYIFDRYTMGWYRQAPGKERELVASISRRGGSTYYADSVKGRFTISRDNAKNTVYLQMNSLKPEDTAVYYCAAPNALGYLFQGFDYWGLGTQVTVSS | high polyreactivity
13 | QVQLVESGGGLVQAGGSLRLSCAASGRIFIRDARGWYRPAPGKERELVAALTRGGSTYYADSVKGRFTISRDTAKNTVYLQMNSLKPEDTAVYYCAARVGYPYYYWGQGTQVTVSS | high polyreactivity
14 | QVQLVESGGGLVQAGGSLRLSCAASGSTGVYAMGWYRQAPGKERELVADITSGGNTDYADSVKGRFTISRDNAKNTVYLQMTSLKPEDTAVYYCAADDYYVLDYFWFIEYGYWGQGTQVTVSS | high polyreactivity
15 | QVQLVESGGGLVQAGGILRLICAASGFIFLGYALGWYRQAPGTERELVAAISSDSDKNYADSVKGRFTISRDNAKNTVYLQMNILKPEDTAVYYCIADIDSYREMDYWGQGTQVTVSS | low polyreactivity
16 | QVQLVESGGGLVQAGGSLRLSCAASGRIFYYYAMGWYRQAPGKERELVAAISQRGGRTYYADSVKGRFTISRDNAKNTVYLQMNSLKPEDTAVYYCNDYPVYGRYTHYGYGHWGQGTQVTVSS | high polyreactivity

Row | Sequence | polyreactivity (PSR sort gate)
17 | QGQRVESGGGLVQAGGSLRLSCAPSGRTFKYYAMGWYRQAPGKERELFAAISYTGGSTYFADSVMGRFTISRDNAKNTVYLQMNSLKPEDTAVYYCARSYYTNGNALKRDYWGQGTQVTVSS | high polyreactivity
18 | QVQLVESGGGLVQAGGSLRLSCAASGFIFGQYAMGWYRQAPGKERELVAAISWSGGRTNYADSVKGRYTISRDNAKNTVYLQMNSLKPEDTAVYYCAARKGKYPQYTYGYWGQGTQVTVSS | high polyreactivity
19 | QVQLVESGGGLVQAGGSLRLRCAASARTFGKYAMGWYRQAPGKERELVASNSLSGGSTYYADSVKGRFTISRDNAKNTVYLQMNSLKPEDTAVYSCAAKHGWYGLGYWGQGTQVTVSS | low polyreactivity
20 | QVQLVESGGGLVQAGGSLRLSCAASGRTLYNYAMGWYRQAPGKERELVAAISSSGSTNYADSVKVRFTISRDNAKNTVYLQMNSLKPEDTAVYYCAKGYPWRYSIMDYWGQGTQVTVSS | low polyreactivity
21 | QVQLVESGGGLVQAGGSLRLSCAASGRIIGAYAMGWYRQAPGKERELVAAITSRGGNTYYADSVKGRITISRDNAKNTVYFQMNSLKPEDTAVYYCAAGVRAYNWCEYDYWGQGTQVTVSS | low polyreactivity
22 | QVQLVESGGGLVQAGGSLRLSCAASGFIFARNAMGRYRQDTGKERELVAVISTRGRTYYADSVKGRFTISRDNSKNTVYLQMNSLKPEDTAVYYCNADKVIGYDYWGQCTQVTVSS | high polyreactivity
23 | QVQLVESGGGLVQAGGSLRLSCAASGITIGSNVMGWYRQAPGKERELVAAISQSGGRTYYADSVKGRFTISRDNAKNTVYLQMNSLKPEDTAVYYCAKRQRSFYGRPMGDYWGQGTQVTVSS | high polyreactivity
24 | QVQLVESGGGIVQAGGSLRLRCAASGSIFRFNAMGWYRQAPGKERDLVAAISSSGSSTYYADSVKGRFTISRDNSKNTVYLQMNSLKPEDTAVYYSAARNSYGNWRYYYWGQGTQVTVSS | high polyreactivity
25 | QVQLVESGGGLVQAGGSLRLSCAASGITLYNYAMGWYRQAPGTERELVAAISLSGGRTYYADSVKGRFTISRDNAKNTVYLQMNSLKPEDTAVYYCAADWLNSDPYNYWGQGTQVTVSS | low polyreactivity
26 | QVQLVESGGGLVQAGGSLRISCAASGLIFAIYAMGWYRQAPGKERELVAAIRWSGASPYADSVKGRFTISRDNAKKTVYLQMNSLKPEDSAVYYCAADDLLDYDYWGQGTQVTVSA | low polyreactivity
27 | QVQLVESGGGLVQAGGSLRLSCAASGSIFVLYAMGWYRQAPGKEREFVAAISWSGDSTYYADSVKGRFTISRDNAKNTVFLQMNSLKPEDTAVYYCAVYGYRTKYGYWGQGTQVTVSS | high polyreactivity
28 | QVQLVESGGGLVQAGGSLRLSCAASGRTFIGYAMAWYRQAPGKEWELVAAISARGGRTYYADSVKGRFTISRDNAKNTVYLQMNSLKPEETAVYYCAAVRVKHSGYDYWGQGTQVTVSS | high polyreactivity
29 | QVQLVESGGGLVQAGGSLRLSCAASGSISSLNTMGWYRQAPGKERELVASISRRGGSTYYADSVKGRFTISRDNAKNTVYLQINSLKPEDTAVFYCAARGVGGTVPTRYDYWGQGTQVTVSS | high polyreactivity
30 | QVQLVESVGGLVQAGGSLRLSCAASGSTIANYAMGWYRQAPGKERELVARIRHSDGSTYYADSVKGRFTISRDNAKNTVYLQMNSLKPEDTAVYYCNVAYPRYRGNPRQSGMGYWGQGTQVTVSS | high polyreactivity
31 | QVQLVESGGGLVQAGGSLRLSCAASGSTLWYYAMGWYRQAPGKERELVADITSSGNTNYADSVKGRFTISRDNAKNTVYLQMISLKPEDTAVYYCAADVTKYHDGHEYDYWGQGTQVTVSS | low polyreactivity
32 | QVQLVESGGGIVQAGGSLRLSCAASGRIFGYYVMGWSRQAPGKESELVAAINYDGGSTYYADSVKGRFTISRDNAKNTVYLQMISLKPVDTAVYYWAAAIGNSEYGWRYDYWGQGTQVTVSS | low polyreactivity
